In publication PMC5583147:

Assays:
C3b-B complex [1] = target: C3b-B complex (UniProt P01024); assay: SPR; C3b amine-coupled on CM5 chip; Biacore T100, 25 C; HBS-N with 2 mM NiCl2; factor B 54 nM, Lufaxin 1 uM, together or Lufaxin after formation of C3b-B
C3b-B complex [2] = target: C3b-B complex (UniProt P01024); assay: SPR; C3b amine-coupled on CM5 chip; Biacore T100, 25 C; HBS-N (10 mM HEPES pH 7.4, 150 mM NaCl) with 2 mM MgCl2; factor B 54 nM, factor D 20 nM, Lufaxin up to 1 uM injected in combinations
C3b = C3b (UniProt P01024); assay: SPR; C3b amine-coupled on CM5 chip; Biacore T100, 25 C; HBS-N with 2 mM NiCl2; factor B 54 nM, Lufaxin 1 uM, together or Lufaxin after formation of C3b-B

Sequence of Lufaxin (Q5WPU8 24-301 limits assumed): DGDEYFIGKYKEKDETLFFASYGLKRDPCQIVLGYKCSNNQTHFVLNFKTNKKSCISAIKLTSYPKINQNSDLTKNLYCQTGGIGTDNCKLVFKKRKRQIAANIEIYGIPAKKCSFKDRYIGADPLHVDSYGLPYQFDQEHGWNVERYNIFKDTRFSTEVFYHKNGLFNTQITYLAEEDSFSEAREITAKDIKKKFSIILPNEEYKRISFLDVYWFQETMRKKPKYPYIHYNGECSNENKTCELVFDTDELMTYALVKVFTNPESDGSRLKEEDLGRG
Sequence of UniProt P01024 (P01024 23-667, chain 1 of 2): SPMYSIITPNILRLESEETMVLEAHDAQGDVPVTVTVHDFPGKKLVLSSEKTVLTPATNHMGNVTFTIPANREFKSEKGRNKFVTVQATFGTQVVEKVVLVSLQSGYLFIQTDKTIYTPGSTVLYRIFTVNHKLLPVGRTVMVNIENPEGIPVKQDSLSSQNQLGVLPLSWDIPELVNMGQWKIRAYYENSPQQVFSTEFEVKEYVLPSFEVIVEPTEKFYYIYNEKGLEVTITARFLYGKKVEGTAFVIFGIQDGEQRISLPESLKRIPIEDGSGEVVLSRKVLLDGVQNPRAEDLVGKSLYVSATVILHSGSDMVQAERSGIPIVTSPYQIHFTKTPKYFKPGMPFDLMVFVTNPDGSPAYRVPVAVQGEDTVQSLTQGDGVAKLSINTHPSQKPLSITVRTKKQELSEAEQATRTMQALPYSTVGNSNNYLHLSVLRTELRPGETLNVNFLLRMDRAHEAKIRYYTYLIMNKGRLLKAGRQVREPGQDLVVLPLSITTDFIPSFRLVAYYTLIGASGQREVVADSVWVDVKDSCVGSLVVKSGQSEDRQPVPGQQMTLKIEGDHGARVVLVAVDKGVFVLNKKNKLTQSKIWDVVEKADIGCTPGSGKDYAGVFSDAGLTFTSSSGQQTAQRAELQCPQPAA
Sequence of UniProt P01024 (P01024 749-1663, chain 2 of 2): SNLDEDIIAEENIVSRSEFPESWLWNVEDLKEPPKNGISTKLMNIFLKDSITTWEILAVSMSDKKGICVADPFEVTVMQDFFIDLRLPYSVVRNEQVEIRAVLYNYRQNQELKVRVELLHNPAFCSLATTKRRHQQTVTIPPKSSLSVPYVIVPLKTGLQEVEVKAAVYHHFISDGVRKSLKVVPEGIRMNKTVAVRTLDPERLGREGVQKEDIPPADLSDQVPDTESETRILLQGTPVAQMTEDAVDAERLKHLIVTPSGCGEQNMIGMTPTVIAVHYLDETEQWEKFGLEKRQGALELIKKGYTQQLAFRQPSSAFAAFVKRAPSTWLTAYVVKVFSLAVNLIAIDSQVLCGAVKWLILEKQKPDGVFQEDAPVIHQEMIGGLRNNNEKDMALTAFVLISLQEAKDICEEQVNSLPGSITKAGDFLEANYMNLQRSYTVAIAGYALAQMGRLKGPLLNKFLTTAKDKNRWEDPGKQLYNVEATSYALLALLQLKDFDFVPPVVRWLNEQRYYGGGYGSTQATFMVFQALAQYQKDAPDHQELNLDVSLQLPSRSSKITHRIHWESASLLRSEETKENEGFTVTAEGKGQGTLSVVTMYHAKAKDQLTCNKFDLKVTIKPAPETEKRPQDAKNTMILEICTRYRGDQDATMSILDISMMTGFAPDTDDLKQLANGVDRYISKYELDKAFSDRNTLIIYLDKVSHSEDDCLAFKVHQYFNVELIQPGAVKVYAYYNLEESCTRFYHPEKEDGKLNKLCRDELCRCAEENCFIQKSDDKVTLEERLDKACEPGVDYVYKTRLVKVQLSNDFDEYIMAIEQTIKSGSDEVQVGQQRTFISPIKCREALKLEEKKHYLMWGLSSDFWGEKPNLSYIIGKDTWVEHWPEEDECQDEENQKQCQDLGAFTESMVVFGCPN

Substance	half-time of dissociation of C3b-B-Lufaxin from the C3b surface (Ni2+) (C3b-B complex [1])	half-time of dissociation of C3b-B-Lufaxin from the C3b surface (Mg2+) (C3b-B complex [2])	half-time of dissociation of C3b-B (Ni2+) (C3b)
Lufaxin (natural protein)	400 s	135 s	
factor B (natural protein)			600 s
